Measured values taken from the supplement of paper PMC12636428.

Test system: Saccharomyces cerevisiae
Assay: transcriptional activation domain activity (GFP:mCherry ratio, weighted mean of sorted bins, harmonized to initial dataset scale) (arbitrary fluorescence ratio units); higher = stronger transcriptional activation
Conditions: beta-estradiol 1 µM; induction time 4 h
In short: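 Barcoded protein tiles fused to an estradiol-inducible synthetic transcription factor were integrated at the yeast URA3 locus, in diploids carrying a GFP reporter. Cultures were diluted 1:5 into SC with 1 uM beta-estradiol, held 4 hours at 30 °C, sorted into 8 bins by GFP:mCherry ratio, and barcodes sequenced. Tiles under 50 reads were discarded. Activation activity is the read-weighted mean of bin median fluorescence, averaged across barcodes, then linearly mapped onto the initial dataset scale.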

## QNAIELTLLCITLIASDTLLLLRVSALCADRSSGVWGISYFYIIRRLLWGVYF
  transcriptional activation domain activity: 68700

## QNESERLGPPKKKRRRQALSCTECKRRKIKCDRTHPCGPCARRSEPEKCQWHV
  transcriptional activation domain activity: 27600

## QNLFGYLERSLNRSTKLRATGMLKEGMVRIFIQKIEGSPFEVTMQFARKFFTA
  transcriptional activation domain activity: 35900

## QPIASCVVKVNFGMISNDSNFCGLVSGIIYVYMGLGGAFMLLVAVCVIKVRYT
  transcriptional activation domain activity: 67700

## QPPPPPGRKRKKAENGEPSTPAEPRRLRRSHEACARCRSKKIKVSTQASAVIL
  transcriptional activation domain activity: 53600

## QPQSPYQQAVLPYATIPNSNFQPSSFPVMAVMPPEVQFDGSFLNTLHPHTELP
  transcriptional activation domain activity: 34400

## QPSAFGQTNTATNAFGQPQQQSAFGSTPTTGAFGSTNTAFGQNRPAFGSTTTP
  transcriptional activation domain activity: 23600

## QPSQVPQEDQPEHEPERKRRPGRPRGSKNRKPRADSAKQPQQQQQQQQQPHPQ
  transcriptional activation domain activity: 59500

## QQAGRTMSEGKKKRNTGKEEGEEGDEERKRKRRAEKKRKQRKRRMSKSTGEEE
  transcriptional activation domain activity: 31700

## QQAHHNVSGPTSKTLLPFLPLHKLMLSNILSPNVRLLFPPLLPLQLSWILWAL
  transcriptional activation domain activity: 61800

## QQEGLKAELPHDFLFQHGTDDTMYNLTDDLSSSLSSSINSDMMTPNTYSSSFS
  transcriptional activation domain activity: 65000

## QQGGGAAASSSGAAQTTSDHVHKDEKEEDKDRDKKKEEEEKEKRKKRREKNKK
  transcriptional activation domain activity: 23700

## QQLGLWIFTWCACNFFLLFFVLKHSIHQKDINILIANVLDIWGLIDPQQILVK
  transcriptional activation domain activity: 61600

## QQLRIKIDSWSYQYGVDEVIRNRNRNLLIQMYMLLPPARFWLYMKRVRIMLLN
  transcriptional activation domain activity: 66500

## QQPITYRKTIYDFFSWFLSLGFLNMMVPCFDLLYISRILVVWREVYYCHLIIA
  transcriptional activation domain activity: 58100

## QQQEEEEKKKEVGGEAEGYEERVINMGAKNSAPMKAGDRIIICTPGGGGWGKS
  transcriptional activation domain activity: 9620

## QQQQQQQQQQQQQQQQQSLDTLLHHYQSLLSKSDNAIAFDDNVSNSADHNGSN
  transcriptional activation domain activity: 22600

## QQTGKGKIHRQYALVVVGNGDGLVGYGEGKDEELPRASDKAFAAAVRNMDHVE
  transcriptional activation domain activity: 43700

## QREARKEHIKSLVAPGLPFLSIDTYKDLNDKWVLKGVFRGLLVLRGLAHHLRT
  transcriptional activation domain activity: 63100

## QRGKPYDLHSSDGSSEKKRTEKVGLSAGKQHMWILLRPKAAMWAVCVVLASPE
  transcriptional activation domain activity: 38700

## QRGVGTGVLKVGVDGGGHDEERIRWEAEMVGRERNWVLKKFLGQAISSQLDHA
  transcriptional activation domain activity: 44800

## QRIIIGSKLILLTRSLLICLLWSLKMAVLDLLAKLMLNMPFERKLIYTLWAIL
  transcriptional activation domain activity: 41600

## QRKLLWMCVHNIESLVCLGTGRGISSKITDNMLGMLISTKIFNLAEAGLRLEI
  transcriptional activation domain activity: 67000

## QRMGSMVQRVQSTCRKCRGEGKILLEKDRCKKCAGRGIVKASKKLEVHVDKGM
  transcriptional activation domain activity: 20000

## QRNDARLIPGIKYLQLVLGRVRCCREIIAILARNGHRLPKGMLPTLVRLWLLM
  transcriptional activation domain activity: 35800

## QRNPGSRAVIVKPILHVYLEGAPGSLTTRNDSVVGLLVVQLSISLANALAMKA
  transcriptional activation domain activity: 22900

## QRTNEDLDVDYVPYDHMGISFWDHLDPSRIAVPSHHNIFRIVVWLFFLVVYSQ
  transcriptional activation domain activity: 53700

## QSFQTLLLILFLPPPLISPFLYVTFFFFPFFPFFFALPRFWDRWALSAFFFLL
  transcriptional activation domain activity: 49200

## QSGFNIHLKDAGAGAHMELLTLDQILMFFQGLNNLNLLYFWGVGFDRLAILAF
  transcriptional activation domain activity: 59200

## QSLENQTTETIDVSPDKHRLLIGRGGETRRAIESKFKVQLDIPKQTATGAARN
  transcriptional activation domain activity: 64100

## QSLNFDLQTNSYYSNARGSDPSSYAIEGEYKTLATDDLGNILNLNYGETNEVI
  transcriptional activation domain activity: 80000

## QSNWVEGFSTHHEPFRPHKRRIKSVIDCSERTAVLVADLIGGLPCVVELKPKW
  transcriptional activation domain activity: 64400

## QSPPPAKKAKTAAGGRGKKVKPEPESGSEAEAKPEPVASKRGRVKKPAKAEQE
  transcriptional activation domain activity: 14800

## QSPSISMEPVSINETGSAYTTTNTALNDIDIPFSINELNELYKQVSSHNSHSQ
  transcriptional activation domain activity: 84100

## QSQAPARKKGAGGKEGKKGKGGKEGKEKVEKESKKKRKAEAEVVVGDEAAAAA
  transcriptional activation domain activity: 33800

## QSQPAKQPAKQPATKKSSKSKGSKKSKGSKGKGSRGSKSKAKGSRSKAKGKAH
  transcriptional activation domain activity: 23600

## QTAVDNMNEQDLDGRNVRVNMANERPASSGGYGGGRGGGRGGFGGGRGRGGYG
  transcriptional activation domain activity: 29600

## QTDPEKKRVWENKILETLERRPSKKCDYILLRSEQLVGTALIVLVKSELTSVI
  transcriptional activation domain activity: 54900

## QTIPKNQFASRVWTYMDPEVSRHLIDHYLGSIDLSRLELAVLALKCLYSRHTT
  transcriptional activation domain activity: 53900

## QTPTDPESYWSDNRCKHSDCQELSPFASVFDLIDHYDHTHAFIPETLVKYSYI
  transcriptional activation domain activity: 17600

## QTRQDEDHWQRVRELENQSSLYYLPIHEETPFFIDLIPNGFYLETKRSADNLF
  transcriptional activation domain activity: 92000

## QTTDLVQWLAMPCNLPWVVYVLDRVRNLLRFVIVLSEVEITEDLKRRIMAIYT
  transcriptional activation domain activity: 77400

## QTTLRAVVSSKEAGVIIGKGGKNVADLRDETGVKAGVSKVVQGVHDRVLTITG
  transcriptional activation domain activity: 51200

## QTVNFGWSDLPHDVYTHLSSDFENPFYFDGIFPTLVDYSPLIVSPPNFLTLEP
  transcriptional activation domain activity: 138000

## QTWGVYKRTGGINMYIVSIWVNWFANSIIGILSWLYLWGTIETSFWFFFFLLL
  transcriptional activation domain activity: 75500

## QVCFLGLSFRCVIGIDQMRCRSGYCSFVSLLYTLGNLSGVFSGIFAYAFSHLN
  transcriptional activation domain activity: 66500

## QVCTLLGASGGSSFVRGGSYLQGGYGLNTADLWRRNFLVLVGWILFFWLLQTI
  transcriptional activation domain activity: 54800

## QVGRKANQKEEKETEKERTEKDKKQGRVGVGGVAKTAIVAGAWCYVVGVVAEL
  transcriptional activation domain activity: 34600

## QVKAKTARKSSRAATKKSSAKRRRDESSEESSDEDESGGERVSRGRGGAVRDK
  transcriptional activation domain activity: 36000

## QVKGNAATLVVRSLALNADLCKLVECLWFLDRYVLVEGKHWAAALPRMKNLWF
  transcriptional activation domain activity: 32200

## QVLVLLLILLVFLVFQFLQMLSFLLKLPFVLKLEILLVLLVTKLWVFLFHLLL
  transcriptional activation domain activity: 41500

## QVPEQVPEQAPEPEKVAEEIVKEEVKKPEEPKAPTPSPAPVAAPRAAAPPAAE
  transcriptional activation domain activity: 29500

## QVTALVRLIVRLNCELDLNLRGFVAALCIHWIKQSAGSASLKVLLYHAVFLAD
  transcriptional activation domain activity: 44900

## QWCIYAMLAYVIGWTISFFFSHLFTCYPITVFIEPYYGNKCVKTVPMFIALLY
  transcriptional activation domain activity: 67700

## QWIHQYIAVPSGTPRDKCHLRQFCYMGLEQWGVGFIIGLLPLLLSVSLCIFLV
  transcriptional activation domain activity: 60400

## QWSVMTYLYLAVRYFGIFLAMICSYWGGLFYIPETVSHVMFLLMQWSYSVYFC
  transcriptional activation domain activity: 78000

## QYETPAPKDFLDDFVSLTDFFTFFDDPVDLYDVGSFAFQQPHSMNIDFDPAML
  transcriptional activation domain activity: 152000

## QYRYLTYSRWLVLLLYVFSWAFTVISMVLVTTNNANFVSCLLSILVCDVFYSG
  transcriptional activation domain activity: 39300

## QYTKLFFFFFLWPLPSLSLLHLPHFSCSLFPFFPTFAPPFSLSLYLSQSFLFL
  transcriptional activation domain activity: 54900

## QYYPGQLLSVKLDLFNTMLARVLDLSHMEILHFIVGPRVNIVGRGYPLRMGVV
  transcriptional activation domain activity: 34100

## RAAAVRGAAQEPQPESRGTSATPARKTAKTEGEEKPAKKRRTAGGDKANKRSK
  transcriptional activation domain activity: 9380

## RAARARATPARPRPRASASRARGACRASTRGCRRRRSSSSSSRAGARMRATSA
  transcriptional activation domain activity: 58600

## RAAVSAPVVPTKAAVAPEEPPVKRKRGRPRLTSPRYRPKAAPAKAPAPTPKVV
  transcriptional activation domain activity: 50000

## RAAVTLCSFFCFFFSWTYSSLFLLSFFIWTGFGRSYGVFFFFFFFFFFFFGGF
  transcriptional activation domain activity: 19400

## RADADAAASGGHDRRRKRARSDASPSDGHASDASTARRERSSRRSSRSHPRHA
  transcriptional activation domain activity: 18500

## RADARSTTRPDGSADESFDALEEEVEEYYIYVHYKTITQPSKALNLVALGRLQ
  transcriptional activation domain activity: 52000

## RADHARRKSPARSRSASASSRSSSRSRSGSRGSDQANRRRRAASPGAQGDGRK
  transcriptional activation domain activity: 39900

## RAGASPEEASAQSGGSRSKEAEESGSSPTGGEVGKSGGKNSSSSKSVEEKSKD
  transcriptional activation domain activity: 29700

## RAGGRGREKKKEAEGPKKRRRKGAGGGDGQRARRKDKGRRRGEIARTAEGRNG
  transcriptional activation domain activity: 20500

## RAITPMRVWMEVHDRAAFKLVWSEVFRLVSVLTDCPLRFKRLHYGGTMLGINT
  transcriptional activation domain activity: 45000

## RAKADAILRELQDTFFPSAAFRAWLTIVTKLIPLSCAVEARRFRPGLDYTLAT
  transcriptional activation domain activity: 77700

## RAKKDAKESTTSKDTGTGKGAGSSREGRGSRNTSSRGRGSASGRQSTRKSRAR
  transcriptional activation domain activity: 29300

## RAKNRAKEEESAAQQKQAQHQQHQQHQQHRQGEEAGSAGRAEAAAAAAAAGAD
  transcriptional activation domain activity: 26200

## RALLLLSYCAFLKTTGVTDGEIVQLISTSAELKFRPWSLVRGAECVNRCITAL
  transcriptional activation domain activity: 47400

## RALPPFFSFFPFFRSCPLPLLSLPFSHPCFPLRLVSFFFFLLFCFSFFFILTC
  transcriptional activation domain activity: 32900

## RAMYAPGFVELTLSYGTGGVTLYARYRSMIDALLKRPHATAFIFAGGYLSWLA
  transcriptional activation domain activity: 52600

## RANMSTQKLAASASRQINAVVVSAGLMEKTVKVRIGQQKWNAHIRKHFNRTSH
  transcriptional activation domain activity: 44400

## RAPRTSPHQHKPAPVPAAALARTSPHPRQHQHQHASRAPPAASPHPRQHQEHQ
  transcriptional activation domain activity: 31300

## RARAHRPKRGGRGRGRGTGTNAREGGGREEGKKKNRKKKTKTKTKTKTKTKKR
  transcriptional activation domain activity: 36600

## RARCIPSAPTRRPLTRSTSTCRRPPRTTGSCWTSSRPSSTPKTSSSAAKPAPC
  transcriptional activation domain activity: 46200

## RARRNSDSSIIDKAAQEKEDRRRRERRREREREEKDRDGKSSSTRKVRKPQGL
  transcriptional activation domain activity: 26200

## RASAAVPRRRDSTDSSDSEGDIRAAMAAARRKQAKVPAPRPVVENRPAPANTP
  transcriptional activation domain activity: 36300

## RASEASVGTEGATDIPGDEKKKKRAPRKKPGEEENEAGRGKGRKRKGTNESSA
  transcriptional activation domain activity: 36200
